The text below walks through data of doi:10.1101/2025.09.18.677151.

The target in the test is T1, E. coli TatC (subunit of the overexpressed TatBC complex) (E. coli), P69423.
T1 chain: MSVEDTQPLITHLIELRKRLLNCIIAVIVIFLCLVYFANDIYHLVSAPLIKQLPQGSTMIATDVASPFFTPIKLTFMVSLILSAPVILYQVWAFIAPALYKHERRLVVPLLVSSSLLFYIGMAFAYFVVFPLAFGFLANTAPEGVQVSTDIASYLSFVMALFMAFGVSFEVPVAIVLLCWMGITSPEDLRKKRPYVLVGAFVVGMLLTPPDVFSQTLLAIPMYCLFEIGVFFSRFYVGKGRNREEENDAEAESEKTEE
The test can be described thus: cryo-EM structure. Conditions: remark: other sources report otherwise.

B1: E. coli TatC (subunit of the overexpressed TatBC complex), P69423 1-258 (natural protein)
chain: T1 chain
As usually defined, the stoichiometry N is the number of molecules, sites or subunits per partner or assembly. Turning to B1, the stoichiometry N stood at 3.
